# In US20200338049A1, “AGENT FOR TREATING FABRY DISEASE, ANALGESIC FOR EXTERNAL USE AND PERSPIRATION ACCELERATOR” (OSAKA UNIVERSITY, priority 2016, published 2020):
# What was measured:
# p-mTOR = p-mTOR staining of angiokeratoma of Fabry disease patient before and after ERT; assay type: in vivo, human; settings: p-mTOR fluorescent staining
# Description: (§1) The activation state of mTOR in an angiokeratoma of a Fabry disease patient, and the effects of ERT (conventional treatment method to treat Fabry disease) on an angiokeratoma, were checked. An enzyme used in ERT of this test was agalsidase beta, and specific processes of the treatment method were based on usual dosages.
# A piece of the skin of a Fabry disease patient including an angiokeratoma lesion was stained with an anti-p-mTOR antibody, and the activation state of mTOR was checked.
# [1] = test system: angiokeratoma of Fabry disease patient; test: Course of angiokeratomas of Fabry disease patient receiving ERT; assay type: in vivo, human; settings: ERT over eight years
# Description: as §1
# [2] = test system: dorsal root ganglion cells (DRG cells); test: Axon extension of cultured dorsal root ganglion cells; assay type: cell-based; settings: DRG cells of 20-week-old wild-type mouse
# Protocol: Dorsal root ganglion cells (DRG cells) were taken from a 20-week-old wild-type mouse. The dorsal root ganglion nerve cells thus taken were first subjected to extraction with Ham's 12 containing 30% Percoll, and then were cultured at 37° C. for 2 days with the use of a Gibco Neurobasal-A medium (manufactured by Gibco) supplemented with 2 mM GlutaMaxl, 2% B-27 w/o Vitamin A, 5 ng/mL recombinant BDNF carrier free, and 10 ng/mL recombinant human-beta NGF carrier free. Then, the culture medium was replaced with a medium supplemented with 2 mM GlutaMaxl, 2% B-27 w/o Vitamin A, 10 μM Retinoic Acidn, and 100 ng/mL recombinant human-beta NGF carrier free, and then a comparative observation of the extension of axons was carried out with a microscope (BZ-X710, manufactured by KEYENCE), and microscope images were taken.
Molecule,mTOR activity in angiokeratoma after ERT (p-mTOR),effect on angiokeratomas [1],extension of axons [2]
"agalsidase beta (protein, UniProt P06280 32-429, looked up, agalsidase beta, enzyme replacement therapy; enzyme used was agalsidase beta, usual dosages) Alpha-galactosidase A: LDNGLARTPTMGWLHWERFMCNLDCQEEPDSCISEKLFMEMAELMVSEGWKDAGYEYLCIDDCWMAPQRDSEGRLQADPQRFPHGIRQLANYVHSKGLKLGIYADVGNKTCAGFPGSFGYYDIDAQTFADWGVDLLKFDGCYCDSLENLADGYKHMSLALNRTGRSIVYSCEWPLYMWPFQKPNYTEIRQYCNHWRNFADIDDSWKSIKSILDWTSFNQERIVDVAGPGGWNDPDMLVIGNFGLSWNQQVTQMALWAIMAAPLFMSNDLRHISPQAKALLQDKDVIAINQDPLGKQGYQLRQGDNFEVWERPLSGLAWAVAMINRQEIGGPRSYTIAVASLGKGVACNPACFITQLLPVKRKLGFYEWTSRLRSHINPTGTVLLQLENTMQMSLKDLL",mTOR is also active,not effective in treating angiokeratomas,–
"BDNF: recombinant BDNF carrier free, brain-derived neurotrophic factor (protein, UniProt P23560 19-247, looked up) Neurotrophic factor BDNF …: APMKEANIRGQGGLAYPGVRTHGTLESVNGPKAGSRGLTSLADTFEHVIEELLDEDQKVRPNEENNKDADLYTSRVMLSSQVPLEPPLLFLLEEYKNYLDAANMSMRVRRHSDPARRGELSVCDSISEWVTAADKKTAVDMSGGTVTVLEKVPVSKGQLKQYFYETKCNPMGYTKEGCRGIDKRHWNSQCRTTQSYVRALTMDSKKRIGWRFIRIDTSCVCTLTIKRGR",–,–,axons were found to have extended
